Source: publication PMC10357428

System: CC(=O)Oc1c[nH]c2ccccc12
Assay: purified protein

“CanB (Mtb β-carbonic anhydrase, Rv3588c) (Mycobacterium tuberculosis H37Rv)” gave a Km of 4.5 ± 0.6 mM.
